This note sets out measurements from publication PMC2688778 (Structure (London, England : 1993), 2009).

What is called Kd is the free concentration of one partner at which half of the binding sites on the other are occupied at equilibrium, for simple one-to-one binding. Lower therefore signals a tighter complex.

What all share (assay): fluorescence anisotropy
A general note: Polarisation of emitted light reports the rotation of a fluorescent probe.

One data set deals with T1, RecE564 K761A (Escherichia coli K12, UniProt P15032 564-866, K761A).
T1 sequence: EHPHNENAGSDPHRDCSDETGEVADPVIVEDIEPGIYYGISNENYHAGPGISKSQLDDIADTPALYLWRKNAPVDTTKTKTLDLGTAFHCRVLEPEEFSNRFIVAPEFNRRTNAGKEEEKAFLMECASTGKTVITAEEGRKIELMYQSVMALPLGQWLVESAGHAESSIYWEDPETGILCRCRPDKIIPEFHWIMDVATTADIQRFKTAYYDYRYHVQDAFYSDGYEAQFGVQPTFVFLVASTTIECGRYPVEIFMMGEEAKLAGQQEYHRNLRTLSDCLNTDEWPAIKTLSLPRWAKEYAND

A further data set has as its target T2, RecE564 P658L (Escherichia coli K12, UniProt P15032 564-866, P658L).
T2 sequence: T1 sequence with P95L, A198K

Another data set addresses T3, RecE564 F665A (Escherichia coli K12, UniProt P15032 564-866, F665A).
T3 sequence: T1 sequence with F102A, A198K

The next data set has as its target T4, RecE564 Y785A (Escherichia coli K12, UniProt P15032 564-866, Y785A).
T4 sequence: T1 sequence with A198K, Y222A

The target of another data set is T5, RecE564 H609A (Escherichia coli K12, UniProt P15032 564-866, H609A).
T5 sequence: T1 sequence with H46A, A198K

In a further data set the target is T6, lambda exonuclease (bacteriophage lambda, UniProt P03697 1-226).
T6 sequence: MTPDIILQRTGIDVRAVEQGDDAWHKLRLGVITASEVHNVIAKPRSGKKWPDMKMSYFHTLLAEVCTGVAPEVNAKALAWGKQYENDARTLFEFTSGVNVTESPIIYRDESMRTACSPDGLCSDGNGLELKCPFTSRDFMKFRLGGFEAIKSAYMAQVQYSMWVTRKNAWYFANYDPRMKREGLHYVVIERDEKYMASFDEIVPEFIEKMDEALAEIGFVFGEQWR

Another data set deals with T7, RecE564 P669A (Escherichia coli K12, UniProt P15032 564-866, P669A).
T7 sequence: T1 sequence with P106A, A198K

Where a chain is given by its changes, count along the chain named.

B1: F25 (dsDNA)
DNA 1: TAGAGCTTAATTGCTGAATCTGGTG
DNA 2: CACCAGATTCAGCAATTAAGCTCTA
Turning to B1, the Kd with RecE564 K761A amounted to 130 ± 10 nM; in the data set with RecE564 P658L, 80 ± 10 nM; with RecE564 F665A, 200 ± 20 nM; with RecE564 Y785A, 98 ± 9 nM; with RecE564 H609A, 50 ± 3 nM; with lambda exonuclease it was 161 ± 2 nM. The molecule further returned a Kd with RecE564 P669A of 109 ± 8 nM.
